The results in this text go back to patent publication US20180086804A1 (COMMISSARIAT A L ENERGIE ATOMIQUE ET AUX ENERGIES …, published 2018).

No end group written: not given here.

Test [1] concerns the target T1, HLA-DR13 (HLA-DRB1*13:01) (human).
T1 chain 1: not shown
T1 chain 2: not shown
The experiment in a line: competition ELISA vs biotin-B1 21-36. (In general: In an ELISA, binding on a coated surface is turned into a signal by an enzyme label.)

Test [2] deals with T2, HLA-DR13 (HLA-DRB1*13:01) (human).
T2 construct: mature; purified from homozygous EBV-transformed lymphoblastoid cells with antibody L243
Put plainly: competition ELISA vs biotin-B1 21-36.

In test [3] the target is T3, HLA-DRB4 (HLA-DRB4*01:01) (human).
T3 construct: mature; purified from homozygous EBV-transformed lymphoblastoid cells with antibody L243
Put plainly: competition ELISA vs biotin-E2/E168.

Test [4] deals with T4, HLA-DR15 (HLA-DRB1*15:01) (human).
T4 construct: mature; purified from homozygous EBV-transformed lymphoblastoid cells with antibody L243
The experiment in a line: competition ELISA vs biotin-A3 152-166.

Test [5] concerns the target T5, HLA-DRB5 (HLA-DRB5*01:01) (human).
T5 construct: mature; purified from homozygous EBV-transformed lymphoblastoid cells with antibody L243
The experiment in a line: competition ELISA vs biotin-HA 306-318.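 Further: HLA and competitor incubated 24 to 72 h, maximal signal taken from wells lacking competitor, background from wells lacking HLA molecule.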

Another test addresses T6, HLA-DR1 (HLA-DRB1*01:01) (human).
T6 construct: mature; class II HLA molecule purified from homozygous EBV-transformed lymphoblastoid cells with antibody L243
Put plainly: competition ELISA vs biotin-HA 306-318.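 Further: HLA and competitor incubated 24 to 72 h, maximal signal taken from wells lacking competitor, background from wells lacking HLA molecule.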

Another test deals with T7, HLA-DR4 (HLA-DRB1*04:01) (human).
T7 construct: mature; purified from homozygous EBV-transformed lymphoblastoid cells with antibody L243
Put plainly: competition ELISA vs biotin-HA 306-318.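 Further: HLA and competitor incubated 24 to 72 h, maximal signal taken from wells lacking competitor, background from wells lacking HLA molecule.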

Test [6] concerns the target T8, HLA-DR11 (HLA-DRB1*11:01) (human).
T8 construct: mature; purified from homozygous EBV-transformed lymphoblastoid cells with antibody L243
Put plainly: competition ELISA vs biotin-HA 306-318.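 Further: HLA and competitor incubated 24 to 72 h, maximal signal taken from wells lacking competitor, background from wells lacking HLA molecule.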

For test [7], the target named is T9, HLA-DP401 (HLA-DPB1*04:01) (human, UniProt P20036 29-222).
T9 construct: mature; purified from homozygous EBV-transformed lymphoblastoid cells with antibody B7/21
Put plainly: competition ELISA vs biotin-Oxy 271-287.

The target of test [8] is T10, HLA-DP402 (HLA-DPB1*04:02) (human, UniProt P20036 29-222).
T10 construct: mature; purified from homozygous EBV-transformed lymphoblastoid cells with antibody B7/21
The experiment in a line: competition ELISA vs biotin-Oxy 271-287.

The target of another test is T11, HLA-DR3 (HLA-DRB1*03:01) (human).
T11 construct: mature; purified from homozygous EBV-transformed lymphoblastoid cells with antibody L243
The experiment in a line: competition ELISA vs biotin-MT 2-16.

The next test concerns the target T12, HLA-DR7 (HLA-DRB1*07:01) (human).
T12 construct: mature; purified from homozygous EBV-transformed lymphoblastoid cells with antibody L243
Put plainly: competition ELISA vs biotin-YKL.

The target of test [9] is T13, HLA-DRB3 (HLA-DRB3*01:01) (human).
T13 construct: mature; purified from homozygous EBV-transformed lymphoblastoid cells with antibody L243
Put plainly: competition ELISA vs biotin-LOL 191-210.

As usually defined, the IC50 is the point on the concentration scale where inhibition reaches its midpoint. The molecule TERVRLVTRHIYNREE (modifications not checked) [B1 21-36] had an IC50 in test [1] of 51 nM.
With HTLAKYLMELTMLDY-NH2 [CCNB1 320-334], the relative affinity in test [2] turned out to be 10; in test [3] it was 18; in [4] it was 3; in test [5], 17; with HLA-DR1 (HLA-DRB1*01:01), 16; in the test with HLA-DR4 (HLA-DRB1*04:01), 1. The relative affinity stood at 2 in [6]; 8 in test [7]; 3 in test [8]; 1 in the test with HLA-DR3 (HLA-DRB1*03:01); 18 with HLA-DR7 (HLA-DRB1*07:01); 24 in [9].
